# In publication doi:10.1101/2022.10.06.510747:
# Like-named read-outs stand apart in the source and are kept apart here.
# Legend:
# [1] = molecular target: PfTGS1-NLS-GFP (bi-partite NLS of P. falciparum trimethyl guanosine synthase 1 fused to GFP) (Plasmodium falciparum); assay: SPR
# [2] = molecular target: PfTGS1-NLS-GFP (bi-partite NLS of P. falciparum trimethyl guanosine synthase 1 fused to GFP) (Plasmodium falciparum); assay: SPR; remark: listed apart in the source
# SV40 T-ag-NLS-GFP (SV40) = assay: AlphaScreen or HTRF
# [3] = molecular target: ΔIBB-TgImpα (T. gondii importin α lacking the IBB domain, amino acids 92-545, C-terminal His-tag) (Toxoplasma gondii); assay: pull-down
Substance,Kd [2],other results
"ΔIBB-TgImpα (T. gondii importin α lacking the IBB domain, amino acids 92-545, C-terminal His-tag) (domain or fragment)",–,Kd [1]: 240 nM
MmHinge-TgImpα (TgImpα chimera containing the hinge motif from MmImpα2) (from UniProt P52293 57-70),5.1 nM,–
SKR-TgImpα (KKR/SKR mutant of the third basic cluster) (natural protein),410 nM,–
pre-dimerized TgImpα/MmImpβ1 (from UniProt P70168 1-876) (complex),–,Kd (SV40 T-ag-NLS-GFP (SV40)): 1.5 nM
AAA-TgImpα (KKR/AAA mutant of the third basic cluster) (natural protein),280 nM,–
WT-TgImpα with a C-terminal GST tag (from UniProt A0A125YID0 1-545) (natural protein),–,Kd (SV40 T-ag-NLS-GFP (SV40)): 3.5 nM
WT-TgImpα (full-length Toxoplasma gondii importin α with C-terminal His-tag) (natural protein),3.26 nM,Kd [1]: 830 nM
PfTGS1-NLS-GFP (bi-partite NLS of P. falciparum trimethyl guanosine synthase 1 fused to GFP) (domain or fragment),–,relative band intensity (pulled down by ΔIBB-TgImpα over WT-TgImpα) [3]: 4.6
KRR-TgImpα (KKR/KRR mutant of the third basic cluster) (natural protein),1450 nM,–
